From patent US20070065429A1 (Biogen, published 2007) come the findings set out here.

As a reminder, the Kd is the concentration at which binding is half-saturated. A high value points to a looser complex.

The target in assay [1] is T1, AP-Aβ (UniProt P05187 23-511; P05067 672-699).
T1 construct: Fusion of alkaline phosphatase and Aβ(1-28); The range 1-28 is Aβ numbering; also called AP-Aβ(1-28); soluble AP-Aβ(1-28)
Nature of the assay: AP fusion binding to COS cells expressing NgR, saturation.

For assay [2], the target named is T2, Fluo-Aβ42 (UniProt P05067 672-713, 'Fluo' label (kind and position not stated)).
T2 construct: also called fibrillogenic Aβ42 peptide
Nature of the assay: Fluo-Aβ42 incubated 2 h at 4° C. with SKNMC cells expressing human NgR-1.

T1 sequence (P05187 other isoform, or with tags, fused parts or gaps): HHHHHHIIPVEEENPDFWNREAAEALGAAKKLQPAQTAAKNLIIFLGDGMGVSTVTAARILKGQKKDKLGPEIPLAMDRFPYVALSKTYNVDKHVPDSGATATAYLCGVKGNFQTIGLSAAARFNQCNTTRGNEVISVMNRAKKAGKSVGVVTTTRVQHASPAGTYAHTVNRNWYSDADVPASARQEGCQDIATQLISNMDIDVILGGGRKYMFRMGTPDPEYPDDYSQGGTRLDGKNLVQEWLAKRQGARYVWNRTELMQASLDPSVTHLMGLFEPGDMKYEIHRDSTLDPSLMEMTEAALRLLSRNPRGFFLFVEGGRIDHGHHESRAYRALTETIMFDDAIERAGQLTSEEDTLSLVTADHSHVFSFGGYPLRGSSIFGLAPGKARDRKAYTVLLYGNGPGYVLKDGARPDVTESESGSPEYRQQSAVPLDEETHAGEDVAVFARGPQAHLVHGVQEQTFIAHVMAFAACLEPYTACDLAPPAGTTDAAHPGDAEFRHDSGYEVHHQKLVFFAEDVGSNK

B1: NgR expressed in COS cells (receptor)
chain: CPGACVCYNEPKVTTSCPQQGLQAVPVGIPAASQRIFLHGNRISHVPAASFRACRNLTILWLHSNVLARIDAAAFTGLALLEQLDLSDNAQLRSVDPATFHGLGRLHTLHLDRCGLQELGPGLFRGLAALQYLYLQDNALQALPDDTFRDLGNLTHLFLHGNRISSVPERAFRGLHSLDRLLLHQNRVAHVHPHAFRDLGRLMTLYLFANNLSALPTEALAPLRALQYLRLNDNPWVCDCRARPLWAWLQKFRGSSSEVPCSLPQRLAGRDLKRLAANDLQGCAVATGPYHPIWTGRATDEEPLGLPKCCQPDAADKASVLEPGRPASAGNALKGRVPPGDSPPGNGSGPRHINDSPFGTLPGSAEPPLTAVRPEGSEPPGFPTSGPRRRPGCSRKNRTRSHCRLGQAGSGGGGTGDSEGS
In assay [1], B1 yielded a Kd of 60 nM.

B2: human NgR-1 expressed on human SKNMC cells (receptor, UniProt Q9BZR6 27-447, looked up)
chain: B1 chain
notes: whole, on cells
Regarding B2, the binding result in assay [2] is recorded as “binds”.
